Data reported in US20210147486A1 (VIB VZW, published 2021).
Positions count from the first letter of the chain named. Names and notes keep the numbering of the source. Where no end group is shown, it is not given here. The star is where a group is joined. NH(CH2)5NH2 = NCCCCCN*

Tests used:
[1] = molecular target: T1, E. coli CsgG (wild type) fused C-terminally to a Strep-II tag (Escherichia coli, UniProt P0AEA2 16-277, N-terminal Cys of mature CsgG lipidated (N-terminal lipidation of CsgG)); assay: co-expression in E. coli; His then Strep tandem affinity purification; SDS-PAGE
T1 construct: Nonameric pore; dimers of nonamers (18-mer) also seen; also called CsgG-Strep; CsgG pore; not shown: C-terminal Strep-II tag
T1 sequence: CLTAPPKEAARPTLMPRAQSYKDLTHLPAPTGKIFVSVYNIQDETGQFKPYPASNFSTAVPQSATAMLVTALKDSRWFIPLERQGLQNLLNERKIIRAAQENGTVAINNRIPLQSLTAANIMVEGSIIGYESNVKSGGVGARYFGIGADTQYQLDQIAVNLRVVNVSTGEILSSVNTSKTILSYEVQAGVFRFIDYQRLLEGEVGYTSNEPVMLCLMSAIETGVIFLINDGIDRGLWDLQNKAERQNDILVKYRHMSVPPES

[2] = molecular target: T2, CsgG Y51A/F56I/N91R/K94Q/R97W-del(V105-I107) pore containing the C terminal strep tag (Escherichia coli, UniProt P0AEA2 16-277); assay: panel E; complex made by incubating pore and peptide; DNA translocation current recording
T2 construct: F561 read as F56I; also called Y51A/F561/N91R/K94Q/R97W-del(V105-I107) (so in the source); not shown: C-terminal Strep tag
T2 chain: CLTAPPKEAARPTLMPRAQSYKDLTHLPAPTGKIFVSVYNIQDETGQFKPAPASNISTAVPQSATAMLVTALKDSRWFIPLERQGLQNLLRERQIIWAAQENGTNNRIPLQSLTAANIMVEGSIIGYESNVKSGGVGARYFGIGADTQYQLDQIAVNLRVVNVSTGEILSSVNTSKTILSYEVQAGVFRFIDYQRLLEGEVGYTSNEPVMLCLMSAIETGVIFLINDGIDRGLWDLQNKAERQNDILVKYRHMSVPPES

[3] = molecular target: T3, CsgG Y51A/F56A/N91R/K94Q/R97W-del(V105-I107) pore containing the C terminal strep tag (Escherichia coli, UniProt P0AEA2 16-277); assay: panel D; complex made by incubating pore and peptide; DNA translocation current recording
T3 construct: not shown: C-terminal Strep tag
T3 chain: T2 chain with I56A

[4] = molecular target: T4, CsgG Y51T/N55V/F56Q/N91R/K94Q/R97W-del(V105-I107) pore containing the C terminal strep tag (Escherichia coli, UniProt P0AEA2 16-277); assay: panel B; complex made by incubating pore and peptide; DNA translocation current recording
T4 construct: not shown: C-terminal Strep tag
T4 chain: T2 chain with A51T, N55V, I56Q

[5] = molecular target: T5, CsgG Y51A/N55V/F56Q/N91R/K94Q/R97W-del(V105-I107) pore containing the C terminal strep tag (Escherichia coli, UniProt P0AEA2 16-277); assay: complex made by incubating pore and peptide; DNA translocation current recording
T5 construct: also called Y51A/F56Q/N55V/N91R/K94Q/R97W-del(V105-I107); not shown: C-terminal Strep tag
T5 chain: T2 chain with N55V, I56Q

[6] = molecular target: T6, CsgG Y51S/N55V/F56Q/N91R/K94Q/R97W-del(V105-I107) pore containing the C terminal strep tag (Escherichia coli, UniProt P0AEA2 16-277); assay: panel F; complex made by incubating pore and peptide; DNA translocation current recording
T6 construct: not shown: C-terminal Strep tag
T6 chain: T2 chain with A51S, N55V, I56Q

[7] = molecular target: T7, CsgG Y51A/N55I/F56Q/N91R/K94Q/R97W-del(V105-I107) pore containing the C terminal strep tag (Escherichia coli, UniProt P0AEA2 16-277); assay: panel C; complex made by incubating pore and peptide; DNA translocation current recording
T7 construct: N551 read as N55I; also called Y51A/N551/F56Q/N91R/K94Q/R97W-del(V105-I107) (so in the source); not shown: C-terminal Strep tag
T7 chain: T2 chain with N55I, I56Q

[8] = molecular target: T5, CsgG …; assay: reconstitution of purified pore with synthetic peptide; SDS-PAGE after heating
[9] = molecular target: T5, CsgG …; assay: reconstitution of purified pore with synthetic peptide; electrophysiology
[10] = molecular target: T8, CsgG Y51A/F56Q/N91R/K94Q/R97W-del(V105-I107) pore containing the C terminal strep tag (Escherichia coli, UniProt P0AEA2 16-277); assay: co-expression, purification, TEV cleavage; DNA translocation current recording
T8 construct: not shown: C-terminal Strep tag
T8 chain: T2 chain with I56Q

[11] = molecular target: T1, E. coli CsgG (wild type) fused …; assay: in vitro reconstitution 2:1 peptide:CsgG, StrepTactin pull down, native PAGE fluorescence
[12] = molecular target: T9, CsgG Y51A/F56Q/K94Q/R97W/R192D-del(V105-I107), Strep-tagged (Escherichia coli, UniProt P0AEA2 16-277); assay: as above
T9 construct: also called CsgG mutant with altered constriction; not shown: C-terminal Strep tag
T9 chain: T2 chain with I56Q, R91N, R189D

[13] = molecular target: T1, E. coli CsgG (wild type) fused …; assay: co-expression, Strep affinity purification, anti-His dot blot

B1: E. coli CsgF (mature) with a C-terminal 6x histidine tag (other)
chain: GTMTFQFRNPNFGGNPNNGAFLLNSAQAQNSYKDPSYNDDFGIETPSALDNFTQAIQSQILGGLLSNINTGKPGRMVTNDYIVDIANRDGQLQLNVTDRKTGQTSTIQVSGLQNNSTDFHHHHHH
notes: a start Met is not mentioned; 9:9 stoichiometry with CsgG in the cryoEM structure; also called CsgF-His
- binding result [1]: binds

B2: CsgF-N17S-(1-35) peptide (peptide)
peptide: GTMTFQFRNPNFGGNPSNGAFLLNSAQAQNSYKDP
notes: also called CsgF-N175-(1-35)
- binding result [2]: binds
- binding result [3]: binds
- binding result [4]: binds
- binding result [5]: binds
- binding result [6]: binds
- binding result [7]: binds

B3: CsgF-N17V-(1-35) peptide (peptide)
peptide: B2 peptide with S17V
- binding result [5]: binds

B4: CsgF-(1-45) synthetic peptide (peptide)
peptide: GTMTFQFRNPNFGGNPNNGAFLLNSAQAQNSYKDPSYNDDFGIET
- binding result [8]: binds

B5: CsgF-(1-29) synthetic peptide (peptide)
peptide: GTMTFQFRNPNFGGNPNNGAFLLNSAQAQ
- binding result [9]: binds

B6: CsgF-(1-30) synthetic peptide (peptide)
peptide: GTMTFQFRNPNFGGNPNNGAFLLNSAQAQN
- binding result [9]: binds

B7: CsgF truncated at position 35 by TEV cleavage, with ENLYFQ left at the C-terminus (peptide)
peptide: GTMTFQFRNPNFGGNPNNGAFLLNSAQAQNSYKDPENLYFQ
notes: The text calls it 42 amino acids long; 35 + 6 gives 41; also called CsgF truncated protein
- binding result [10]: binds

B8: CsgF N17S truncated at position 35 by TEV cleavage, with ENLYFQ left at the C-terminus (peptide)
peptide: B7 peptide with N17S
- binding result [10]: binds

B9: Alexa 594-labelled CsgF peptide corresponding to the first 34 residues of mature CsgF (peptide)
peptide: GTMTFQFRNPNFGGNPNNGAFLLNSAQAQNSYKD-{NH(CH2)5NH2-Alexa594}
notes: Synthetic peptide; also called CsgF N-terminal peptide; FCP
- binding result [11]: binds
- binding result [12]: binds

B10: CsgF 20:64 fragment with C-terminal 6xHis (from pNA100) (peptide)
peptide: GTMTFQFRNPNFGGNPNNGAFLLNSAQAQNSYKDPSYNDDFGIETHHHHHH
notes: also called CsgF 1-64; CsgF fragment 1-64
- binding result [13]: binds
